For one molecule, percent precipitated results are on record in patent US20020025923A1.

The target in the test is PNAd (peripheral node addressin), MECA-79 purified human tonsil lysate. Put plainly: precipitation of PNAd with the chimera.

B1: L-selectin/IgG chimera (entire extracellular domain of murine L-selectin fused to the Fc domain of human IgG1) (Fc fusion, UniProt P18337 39-332, looked up, not shown: a dimerising Fc or GST)
chain: WTYHYSEKPMNWENARKFCKQNYTDLVAIQNKREIEYLENTLPKSPYYYWIGIRKIGKMWTWVGTNKTLTKEAENWGAGEPNNKKSKEDCVEIYIKRERDSGKWNDDACHKRKAALCYTASCQPGSCNGRGECVETINNHTCICDAGYYGPQCQYVVQCEPLEAPELGTMDCIHPLGNFSFQSKCAFNCSEGRELLGTAETQCGASGNWSSPEPICQVVQCEPLEAPELGTMDCIHPLGNFSFQSKCAFNCSEGRELLGTAETQCGASGNWSSPEPICQETNRSFSKIKEGDYN
Regarding B1, the percent precipitated is > 90%.
